Target: the molecule itself
Assay: SEC

B1: Synechocystis sp. PCC 6803 fructose-1,6-bisphosphatase (FBPase; slr0952) (enzyme, UniProt P74324 1-347, looked up)
chain: MTVSEIHIPNSLLDRDCTTLSRHVLQQLNSFGADAQDLSAIMNRIALAGKLIARRLSRAGLMADVLGFTGETNVQGESVKKMDVFANDVFISVFKQSGLVCRLASEEMEKPYYIPENCPIGRYTLLYDPIDGSSNVDINLNVGSIFAIRQQEGDDLDGSASDLLANGDKQIAAGYILYGPSTILVYSLGSGVHSFILDPSLGEFILAQENIRIPNHGPIYSTNEGNFWQWDEALRDYTRYVHRHEGYTARYSGALVGDIHRILMQGGVFLYPGTEKNPDGKLRLLYETAPLAFLVEQAGGRASDGQKRLLDLIPSKLHQRTPAIIGSAEDVKLVESFISDHKQRQGN
stoichiometry N: 4

Reference: article PMC12675262 (Journal of Experimental Botany, 2025)
